Experimental data as given in publication PMC6037002, “Drug targeting to decrease cardiotoxicity – determination of the cytotoxic effect of GnRH-based conjugates containing doxorubicin, daunorubicin and methotrexate on human cardiomyocytes and endothelial cells” (Beilstein Journal of Organic Chemistry, 2018).
Where two headings read alike, the source gives them in different places.

Tests used:
[1] = test system: human umbilical vein endothelial cells (HUVEC); test: Impedimetric measurement (xCELLigence SP), delta slope, HUVEC; conditions: for delta slope (DS), short-term / delta slope (DS), long-term: HUVEC, three parallels; for delta slope (DS), short-term: 0–2 h; for delta slope (DS), long-term: 0–72 h; for Cardiotoxicity, HUVEC: grade +++/++/+/0, key not given, summary of impedimetric cytotoxicity; for cytotoxic effect on HUVEC, result in words: long-term (0–72 h), 10^−8–10^−6 mol/L, impedimetry, one-way ANOVA
[2] = test system: MCF-7 human breast adenocarcinoma cells; conditions: MTT assay; cited from earlier work
Excerpt: (§1) Table 1 Comparative study of cytotoxic effects and cardiotoxicity elicited by GnRH-based antitumor compounds (1–15) and reference substances (AN-152, Dox, Dau, Mtx). IC50 values show antitumor cytotoxic characteristics of the conjugates in human breast cancer (MCF-7), human colorectal adenocarcinoma (HT-29) and human acute monocytic leukemia (MM6) derived cell lines as representative tumor cells.

[3] = test system: human acute monocytic leukemia (MonoMac6) cells; conditions: cited from earlier work
Excerpt: as §1

[4] = test system: primary human cardiac myocytes (HCM); conditions: for delta slope (DS), short-term / delta slope (DS), long-term: HCM, three parallels; for delta slope (DS), short-term: 0–2 h; for delta slope (DS), long-term: 0–72 h
[5] = cited from earlier work
Protocol: The GnRH derivatives were prepared by solid phase peptide synthesis (SPPS) according to Fmoc/t-Bu strategy (Supporting Information File 2). Three drug molecules, doxorubicin (Dox), daunorubicin (Dau) and methotrexate (Mtx), were employed in the preparation of drug conjugates. Dox has three potential conjugation sites; i) a primary OH group at C-14 on the aglycone part, which is suitable for ester bond formation, ii) an oxo group at C-13 is available for the generation of an oxime linkage and iii) the amino group on the daunosamine sugar moiety, which can be used for amide bond formation. The d ...

[6] = test system: HT-29 human colon adenocarcinoma cells; conditions: MTT assay; cited from earlier work
Excerpt: as §1

## [^4N-MeSer]-GnRH-III(Dau=Aoa) [conjugate 6]
[1]; Table S4a, 10^-6 mol/L
  delta slope (DS), short-term: 0.006
  delta slope (DS), long-term: 0.001
[1]; Table S4a, 10^-7 mol/L
  delta slope (DS), short-term: 0.002
  delta slope (DS), long-term: -0.001
[1]; Table S4a, 10^-8 mol/L
  delta slope (DS), short-term: 0.011
  delta slope (DS), long-term: 0.001
[1]
  Cardiotoxicity, HUVEC: 0
  cytotoxic effect on HUVEC, result in words: completely lost the cytotoxic effect
[2]
  IC50: 10.6 ± 2.1 µM
[3]
  IC50: > 1 µM
[4]; Table S4b, 10^-6 mol/L
  delta slope (DS), short-term: 0.001
  delta slope (DS), long-term: 0.001
[4]; Table S4b, 10^-7 mol/L
  delta slope (DS), short-term: -0.001
  delta slope (DS), long-term: -0.002
[4]; Table S4b, 10^-8 mol/L
  delta slope (DS), short-term: -0.005
  delta slope (DS), long-term: -0.002
[4]; grade +++/++/+/0, key not given, summary of impedimetric cytotoxicity
  Cardiotoxicity, HCM: 0
[4]; long-term (0–72 h), 10^−8–10^−6 mol/L (free drugs 10^−12–10^−6 mol/L), impedimetry, one-way ANOVA
  cytotoxic effect on HCM, result in words: completely lost their cytotoxic effect
[5]
  enzymatic stability, result in words: increased the enzymatic stability

## [^4Lys(Ac)]-GnRH-III(Dau=Aoa) [conjugate 5]
[1]; Table S3a, 10^-6 mol/L
  delta slope (DS), short-term: 0.002
  delta slope (DS), long-term: -0.001
[1]; Table S3a, 10^-7 mol/L
  delta slope (DS), short-term: 0.004
  delta slope (DS), long-term: -0.001
[1]; Table S3a, 10^-8 mol/L
  delta slope (DS), short-term: -0.001
  delta slope (DS), long-term: -0.001
[1]
  Cardiotoxicity, HUVEC: 0
  cytotoxic effect on HUVEC, result in words: completely lost the cytotoxic effect
[6]
  IC50: 7.4 ± 2.6 µM
[2]
  IC50: 3.1 ± 1.7 µM
[3]
  IC50: 0.925 ± 0.07 µM
[4]; Table S3b, 10^-6 mol/L
  delta slope (DS), short-term: -0.005
  delta slope (DS), long-term: −0.003
[4]; Table S3b, 10^-7 mol/L
  delta slope (DS), short-term: -0.001
  delta slope (DS), long-term: -0.001
[4]; Table S3b, 10^-8 mol/L
  delta slope (DS), short-term: -0.002
  delta slope (DS), long-term: 0.001
[5]
  enzymatic stability, result in words: increased the enzymatic stability
